Laboratory results reported in patent US7879792.

Key:
human γ-thrombin (human) = human γ-thrombin (human) (UniProt P00734); assay: inhibition of γ-thrombin hydrolysis of Sar-Pro-Arg-paranitroanilide; Ki from Ki,app by the procedure of Bieth
[1] = target: recombinant extracellular domain of human PAR4 (rPAR4EC), Gly18-Arg78 (human) (UniProt Q96RI0); assay: displacement of 15 µM RPPGFK-biotin from plate-bound rPAR4EC; peptide at 300 µM
[2] = target: recombinant extracellular domain of human PAR4 (rPAR4EC), Gly18-Arg78 (human) (UniProt Q96RI0); assay: displacement of 15 µM RPPGFK-biotin from plate-bound rPAR4EC; peptide at 1000 µM
[3] = target: recombinant extracellular domain of human PAR4 (rPAR4EC), Gly18-Arg78 (human) (UniProt Q96RI0); assay: displacement of 15 µM RPPGFK-biotin from plate-bound rPAR4EC; peptide at 30 µM
human α-thrombin (human) [4] = target: human α-thrombin (human) (UniProt P00734); assay: inhibition of α-thrombin hydrolysis of Sar-Pro-Arg-paranitroanilide; Ki from Ki,app by the procedure of Bieth
human α-thrombin (human) [5] = target: human α-thrombin (human) (UniProt P00734); assay: cell-based or functional assay

rOicPaF(p-Br) (D-Arg-Oic-Pro-D-Ala-Phe(p-Br)) (peptide)
Ki (human γ-thrombin (human)): 48.7 µM

rOicPaF(p-I) (D-Arg-Oic-Pro-D-Ala-Phe(p-I)) (peptide)
Ki (human γ-thrombin (human)): 59.2 µM

rOicPaF(p-Me) (D-Arg-Oic-Pro-D-Ala-Phe(p-Me)) (peptide)
% of RPPGFK-biotin displaced [1]: 49%
% of RPPGFK-biotin displaced [2]: 63%
Ki (human γ-thrombin (human)): 54.3 µM
% of RPPGFK-biotin displaced [3]: 19%

rOicPsF(p-Me) (D-Arg-Oic-Pro-D-Ser-Phe(p-Me)) (peptide)
Ki (human γ-thrombin (human)): 42.2 µM

rOicPaF(p-NO2) (D-Arg-Oic-Pro-D-Ala-Phe(p-NO2)) (peptide)
Ki (human α-thrombin (human) [4]): 10.6 µM
peptide concentration giving significant prolongation (p<0.05) of the APTT of normal human plasma (human α-thrombin (human) [5]): 50 µM
peptide concentration giving significant prolongation (p<0.05) of the PT of normal human plasma (human α-thrombin (human) [5]): 6.25 µM
peptide concentration giving significant prolongation (p<0.05) of the TCT of normal human plasma (human α-thrombin (human) [5]): 1.56 µM
Ki (human γ-thrombin (human)): 87.9 µM
